Consider 5 molecules from paper PMC12408340 (Nature, 2025).

The target in series [1] is FCoV-23 S domain B (receptor-binding domain, RBD), residues 529-677 (FCoV-23 (feline coronavirus)). The experiment in a line: BLI; […]; global 1:1 fit; […]. For orientation: BLI is a label-free optical method that tracks binding on a fibre tip over time.
Series [2] has as its target T1, CCoV-HuPn-2018 S domain B (receptor-binding domain, RBD), residues 523-671 (CCoV-HuPn-2018 (canine coronavirus)).
T1 chain: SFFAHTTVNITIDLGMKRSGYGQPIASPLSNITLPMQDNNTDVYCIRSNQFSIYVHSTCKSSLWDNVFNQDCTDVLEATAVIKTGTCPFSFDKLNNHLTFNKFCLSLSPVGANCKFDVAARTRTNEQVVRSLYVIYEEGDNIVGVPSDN
The experiment in a line: BLI.

The series “cryo-EM structure” deals with the molecule itself. The series can be described thus: cryo-EM structure.

Usually Kd stands for the free concentration of one partner at which half of the binding sites on the other are occupied at equilibrium, for simple one-to-one binding. A lower Kd goes with tighter binding. The molecule “Felis catus APN ectodomain fused to a human Fc fragment (FcAPN-Fc) (from UniProt P79171 64-967) (Fc fusion)” gave a Kd in series [1] of 11 nM.
Still for that read-out and setting: for “Canis lupus familiaris APN ectodomain fused to a human Fc fragment (CfAPN-Fc) (from UniProt P79143 71-975) (Fc fusion)” the value was 1.3 nM.

B1: Felis catus APN ectodomain fused to a human Fc fragment (FcAPN-Fc) (Fc fusion)
chain: DQSKPWNVYRLPKTLIPDSYNVTLRPYLTPNNKGLYVFTGTNIVRFTCKESTNIVIIHSKRLNYTSHQGHMVALSGVGGFHPQPVIVRTELVELTEYLVVHLQEPLVAGRQYEMNSEFQGELADDLAGFYRSEYMENGVKKVLATTHMQATEARKSFPCFDEPAMKATFNITIIHPNNLVALSNMLPRGPSVPFGEDPTWKVTEFETTPIMSTYLLAYIVSEFSYVETRAPSGVLIRIWARPSAINQGHGDYALKVTGPILDFFSQHYDTPYPLNKSDQIALPDFNAGAMENWGLVTYRESALLYDRQSSSSGNQERVVTVIAHELAHQWFGNLVTLEWWNDLWLNEGFASYVEYLGADFAEPTWNLKDLMVLNDVYRVMAVDALASSHPLSTPASEINTPAQISEVFDSISYSKGASVLRMLSNFLTEDLFKMGIASYLHTYKYGNTIYLNLWEHLQQVVDKQPTIKLPDTVSAIMDRWILQMGFPVITVDTQTGTISQQHFLLDPQSVVTRPSQFNYLWIVPISSVRSGSPQAHYWLPGVEKAQNDLFKTTANDWVLLNLNVTGYYLVNYDNENWKKIQTQLQTDLSVIPVINRAQVIHDAFNLASAQKVPVTLALNNTLFLIQETEYMPWQAALSSLSYFKLMFDRSEVYGPMKRYLKKQVTPLFNHFERVTKNWTDHPQTLMDQYSEINAVSTACSYGVPECEKLAATLFAQWKKNPQNNPIHPNLRSTVYCNAIAQGGEEEWNFVWEQFLKAELVNEADKLRGALACSNQVWILNRFLSYTLDPNLIRKQDVTSTLSSISSNVVGQTLVWDFVQSNWKKLFQDYGTGSFSFSNLIQAVTRRFSTEFELQQLEQFKKNNMDTGFGSATRALEQALEKTKANLKWVKENKDVVLRWFTENS
On to B1, for which binding in series [2] was characterised by a dissociation constant (Kd) of 28 nM.

B2: Felis catus APN ectodomain dimer without the Fc fusion (FcAPN) (domain or fragment)
chain: DQSKPWNVYRLPKTLIPDSYNVTLRPYLTPNNKGLYVFTGTNIVRFTCKESTNIVIIHSKRLNYTSHQGHMVALSGVGGFHPQPVIVRTELVELTEYLVVHLQEPLVAGRQYEMNSEFQGELADDLAGFYRSEYMENGVKKVLATTHMQATEARKSFPCFDEPAMKATFNITIIHPNNLVALSNMLPRGPSVPFGEDPTWKVTEFETTPIMSTYLLAYIVSEFSYVETRAPSGVLIRIWARPSAINQGHGDYALKVTGPILDFFSQHYDTPYPLNKSDQIALPDFNAGAMENWGLVTYRESALLYDRQSSSSGNQERVVTVIAHELAHQWFGNLVTLEWWNDLWLNEGFASYVEYLGADFAEPTWNLKDLMVLNDVYRVMAVDALASSHPLSTPASEINTPAQISEVFDSISYSKGASVLRMLSNFLTEDLFKMGIASYLHTYKYGNTIYLNLWEHLQQVVDKQPTIKLPDTVSAIMDRWILQMGFPVITVDTQTGTISQQHFLLDPQSVVTRPSQFNYLWIVPISSVRSGSPQAHYWLPGVEKAQNDLFKTTANDWVLLNLNVTGYYLVNYDNENWKKIQTQLQTDLSVIPVINRAQVIHDAFNLASAQKVPVTLALNNTLFLIQETEYMPWQAALSSLSYFKLMFDRSEVYGPMKRYLKKQVTPLFNHFERVTKNWTDHPQTLMDQYSEINAVSTACSYGVPECEKLAATLFAQWKKNPQNNPIHPNLRSTVYCNAIAQGGEEEWNFVWEQFLKAELVNEADKLRGALACSNQVWILNRFLSYTLDPNLIRKQDVTSTLSSISSNVVGQTLVWDFVQSNWKKLFQDYGTGSFSFSNLIQAVTRRFSTEFELQQLEQFKKNNMDTGFGSATRALEQALEKTKANLKWVKENKDVVLRWFTENS
As usually defined, the stoichiometry N is a count of units in the complex or per binding partner. Regarding B2, the “stoichiometry N” value in the series “cryo-EM structure” was found to be 2.

B3: Canis lupus familiaris APN ectodomain fused to a human Fc fragment (CfAPN-Fc) (Fc fusion)
chain: LAQSKPWNHYRLPKTLIPSSYNVTLRPYLTPNSNGLYTFKGSSTVRFTCKESTSMIIIHSKKLNYTNIQGQRVALRGVGGSQAPAIDRTELVEVTEYLVVHLREPLQVNSQYEMDSKFEGELADDLAGFYRSEYTENGVKKVLATTQMQAADARKSFPCFDEPAMKATFNITLIHPSNLVALSNMLPRGPSVPFTEEPNWNVTEFETTPIMSTYLLAYIVSEFKNVQENTPSNVLIRIWARPSAMDQGHGNYALRVTGPILDFFSRHYDTPYPLNKSDQIALPDFNAGAMENWGLVTYRESALLYDPQSSSIGNKERVVTVIAHELAHQWFGNLVTLEWWNDLWLNEGFASYVEYLGADYAEPTWNLKDLIVLNEVYRVMAVDALASSHPLSSPASEVNTPAQISEVFDSISYSKGASVLRMLSSFLTEDLFKKGVASYLHTFAYQNTIYLDLWNHLQWALGNQTAINLPYTVNAIMDRWILQMGFPVVTVDTTTGTLSQKHFLLDPQSNVTRPSKFNYLWIIPISSVKSGTQQAHYWMPDNAKVQNDLFKTTGDEWVLLNLNVTGYYLVNYDQNNWKKIHTQLQTDLSVIPVINRAQVIHDTFDLASAQIVPVTLALNSTLFLNQETEYMPWEAALSSLSYFKLMFDRSEVYGPMKNYLRKQVTPLFNHFEKITQNWTDHPQTLTEQYNEINAVSTACTYGVPKCKDLVSTLFAEWRKNPQNNPIYPNLRSTVYCNAIAQGGEEEWNFVWEQFRNTSLVNEADKLRSALACSTQVWILNRYLSYTLNPEFIRKQDVISTLSSIASNVIGQSLAWDFIQSNWKKLFEDYGTGSFSFSNLIQAVTRRFSTEFELQQLEQFKANNMDTGFGSGTRALEQALEKTKANIKWVKENKEAVLQWFRENSQ
Turning to B3, binding in series [2] was put at a Kd of 2.6 nM.
